In the assay the target is T1, recombinant human connective tissue growth factor (human, UniProt P29279 27-349).
T1 construct: signal peptide in the construct; connective tissue growth factor (CTGF), human, cDNA for full-length rhCTGF aa 1-349, Swiss-Prot P29279; secreted into the supernatant of HEK293T cells; The purified protein runs as two bands, 36 kDa (unglycosylated) and 38 kDa (glycosylated); No tag is mentioned; also called hCTGF; rhCTGF
T1 sequence (looked up): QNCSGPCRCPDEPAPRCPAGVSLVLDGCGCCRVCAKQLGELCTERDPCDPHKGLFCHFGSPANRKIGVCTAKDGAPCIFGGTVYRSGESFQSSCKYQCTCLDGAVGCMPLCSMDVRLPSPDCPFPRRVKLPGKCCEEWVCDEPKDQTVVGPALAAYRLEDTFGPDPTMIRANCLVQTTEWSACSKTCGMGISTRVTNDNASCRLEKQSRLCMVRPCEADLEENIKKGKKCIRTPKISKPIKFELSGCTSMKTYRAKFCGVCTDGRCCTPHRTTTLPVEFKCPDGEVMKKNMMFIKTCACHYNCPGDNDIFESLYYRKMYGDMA
As to the kind of experiment: SPR; BIACORE 2000; biotinylated BMP-2 immobilised on a streptavidin-coated CM5 chip at about 500 RU; CTGF flowed over at 10 ul/min, 25 °C; association 5 min, dissociation 3 min; regeneration with 4 M MgCl2; kinetic data fitted to a 1:1 Langmuir model; two independent experiments, at least six concentrations; apparent KD. Conditions: both partners purified. A general note: Surface plasmon resonance follows binding to a sensor surface in real time, without labels.

These results are taken from PMC3021567, “Gene expression profiling of connective tissue growth factor (CTGF) stimulated primary human tenon fibroblasts reveals an inflammatory and wound healing response in vitro” (Molecular Vision, 2011).

B1: bone morphogenetic protein 2 (ligand, UniProt P12643 283-396, looked up)
chain: QAKHKQRKRLKSSCKRHPLYVDFSDVGWNDWIVAPPGYHAFYCHGECPFPLADHLNSTNHAIVQTLVNSVNSKIPKACCVPTELSAISMLYLDENEKVVLKNYQDMVVEGCGCR
modifications: biotin (biotinylated BMP-2; site not stated)
notes: bone morphogenetic protein 2 (BMP-2); also called BMP-2; source: expressed and purified as described [19]
For the molecule B1, the Kd came to 400 nM.
